Experimental findings from article PMC7954794, “Protein context shapes the specificity of SH3 domain-mediated interactions in vivo” (Nature Communications, 2021) are described below.

B1: S. cerevisiae Abp1 (full length; SH3 domain 535-592 mutated) / Hua2 (parent)
chain 1: MALEPIDYTTHSREIDAEYLKIVRGSDPDTTWLIISPNAKKEYEPESTGSSFHDFLQLFDETKVQYGLARVSPPGSDVEKIIIIGWCPDSAPLKTRASFAANFAAVANNLFKGYHVQVTARDEDDLDENELLMKISNAAGARYSIQTSSKQQGKASTPPVKKSFTPSKSPAPVSKKEPVKTPSPAPAAKISSRVNDNNDDDDWNEPELKERDFDQAPLKPNQSSYKPIGKIDLQKVIAEEKAKEDPRLVQKPTAAGSKIDPSSDIANLKNESKLKRDSEFNSFLGTTKPPSMTESSLKNDDDKVIKGFRNEKSPAQLWAERKAKQNSGNAETKAEAPKPEVPEDEPEGEPDVKDLKSKFEGLAASEKEEEEMENKFAPPPKKSEPTIISPKPFSKPQEPVKAEEAEQPKTDYKKIGNPLPGMHIEADNEEEPEENDDDWDDDEDEAAQPPLPSRNVASGAPVQKEEPEQEEIAPSLPSRNSIPAPKQEEAPEQAPEEEIEEEAEEAAPQLPSRSSAAPPPPPRRATPEKKPKENPWATAEYDYDAAEDNELTFVENDKIINIEFVDDDWWLGELEKDGSKGLFPSNYVSLGN
chain 2: MQQTKFGKMYLDHDSVVEYSEDEIVEADRITLGYKKRLSMIENQMRHLLEDFSLDVQQIEPILADLQKYYDAFLQLLQKRNKSLQCKRSTHQPVPSPMNSQTSTNAKVNLSGKLMKFQLNSVQKFDEENILRILQNKIEFEHYFQIDKGKKQKVLLLAVYQCLNGPTRLHKVLNIEGIIHNNSIRTILGKQVSSSKWTVFLYDVKLVLLAHRQDVPNLETSKMIVRYGDLFPCALYFKDHTAY

In the assay the parent is B1. As to the kind of experiment: DHFR protein-fragment complementation in yeast (Abp1-DHFR F[1,2] x partner-DHFR F[3]), deep mutational scanning, second methotrexate selection vs reference. The conditions noted are these: with Hua2; S. cerevisiae, DHFR-PCA selection in liquid with methotrexate at 30 C, two 72 h selections (the score uses the second); reference = the pre-selection culture; not an affinity; value at the no-binding floor (a bound); scale: DMS score: mean over two replicates of log2(f_test/f_ref + 0.5)/ln 2, minus the synonymous-codon median.
In the case of chain 1 MALEPIDYTTHSREIDAEYLKIVRGSDPDTTWLIISPNAKKEYEPESTGSSFHDFLQLFDETKVQYGLARVSPPGSDVEKIIIIGWCPDSAPLKTRASFAANFAAVANNLFKGYHVQVTARDEDDLDENELLMKISNAAGARYSIQTSSKQQGKASTPPVKKSFTPSKSPAPVSKKEPVKTPSPAPAAKISSRVNDNNDDDDWNEPELKERDFDQAPLKPNQSSYKPIGKIDLQKVIAEEKAKEDPRLVQKPTAAGSKIDPSSDIANLKNESKLKRDSEFNSFLGTTKPPSMTESSLKNDDDKVIKGFRNEKSPAQLWAERKAKQNSGNAETKAEAPKPEVPEDEPEGEPDVKDLKSKFEGLAASEKEEEEMENKFAPPPKKSEPTIISPKPFSKPQEPVKAEEAEQPKTDYKKIGNPLPGMHIEADNEEEPEENDDDWDDDEDEAAQPPLPSRNVASGAPVQKEEPEQEEIAPSLPSRNSIPAPKQEEAPEQAPEEEIEEEAEEAAPQLPSRSSAAPPPPPRRATPEKKPKENPWATAEYDYDAAEDNWLTFVENDKIINIEFVDDDWWLGELEKDGSKGLFPSNYVSLGN [chain 1 E550W], the screen value is under -3.06.
For chain 1 MALEPIDYTTHSREIDAEYLKIVRGSDPDTTWLIISPNAKKEYEPESTGSSFHDFLQLFDETKVQYGLARVSPPGSDVEKIIIIGWCPDSAPLKTRASFAANFAAVANNLFKGYHVQVTARDEDDLDENELLMKISNAAGARYSIQTSSKQQGKASTPPVKKSFTPSKSPAPVSKKEPVKTPSPAPAAKISSRVNDNNDDDDWNEPELKERDFDQAPLKPNQSSYKPIGKIDLQKVIAEEKAKEDPRLVQKPTAAGSKIDPSSDIANLKNESKLKRDSEFNSFLGTTKPPSMTESSLKNDDDKVIKGFRNEKSPAQLWAERKAKQNSGNAETKAEAPKPEVPEDEPEGEPDVKDLKSKFEGLAASEKEEEEMENKFAPPPKKSEPTIISPKPFSKPQEPVKAEEAEQPKTDYKKIGNPLPGMHIEADNEEEPEENDDDWDDDEDEAAQPPLPSRNVASGAPVQKEEPEQEEIAPSLPSRNSIPAPKQEEAPEQAPEEEIEEEAEEAAPQLPSRSSAAPPPPPRRATPEKKPKENPWATAEYDYDAAEDNSLTFVENDKIINIEFVDDDWWLGELEKDGSKGLFPSNYVSLGN [chain 1 E550S], the screen value was under -3.06.
chain 1 MALEPIDYTTHSREIDAEYLKIVRGSDPDTTWLIISPNAKKEYEPESTGSSFHDFLQLFDETKVQYGLARVSPPGSDVEKIIIIGWCPDSAPLKTRASFAANFAAVANNLFKGYHVQVTARDEDDLDENELLMKISNAAGARYSIQTSSKQQGKASTPPVKKSFTPSKSPAPVSKKEPVKTPSPAPAAKISSRVNDNNDDDDWNEPELKERDFDQAPLKPNQSSYKPIGKIDLQKVIAEEKAKEDPRLVQKPTAAGSKIDPSSDIANLKNESKLKRDSEFNSFLGTTKPPSMTESSLKNDDDKVIKGFRNEKSPAQLWAERKAKQNSGNAETKAEAPKPEVPEDEPEGEPDVKDLKSKFEGLAASEKEEEEMENKFAPPPKKSEPTIISPKPFSKPQEPVKAEEAEQPKTDYKKIGNPLPGMHIEADNEEEPEENDDDWDDDEDEAAQPPLPSRNVASGAPVQKEEPEQEEIAPSLPSRNSIPAPKQEEAPEQAPEEEIEEEAEEAAPQLPSRSSAAPPPPPRRATPEKKPKENPWATAEYDYDAAEDNRLTFVENDKIINIEFVDDDWWLGELEKDGSKGLFPSNYVSLGN [chain 1 E550R]: the screen value was -3.
Regarding chain 1 MALEPIDYTTHSREIDAEYLKIVRGSDPDTTWLIISPNAKKEYEPESTGSSFHDFLQLFDETKVQYGLARVSPPGSDVEKIIIIGWCPDSAPLKTRASFAANFAAVANNLFKGYHVQVTARDEDDLDENELLMKISNAAGARYSIQTSSKQQGKASTPPVKKSFTPSKSPAPVSKKEPVKTPSPAPAAKISSRVNDNNDDDDWNEPELKERDFDQAPLKPNQSSYKPIGKIDLQKVIAEEKAKEDPRLVQKPTAAGSKIDPSSDIANLKNESKLKRDSEFNSFLGTTKPPSMTESSLKNDDDKVIKGFRNEKSPAQLWAERKAKQNSGNAETKAEAPKPEVPEDEPEGEPDVKDLKSKFEGLAASEKEEEEMENKFAPPPKKSEPTIISPKPFSKPQEPVKAEEAEQPKTDYKKIGNPLPGMHIEADNEEEPEENDDDWDDDEDEAAQPPLPSRNVASGAPVQKEEPEQEEIAPSLPSRNSIPAPKQEEAPEQAPEEEIEEEAEEAAPQLPSRSSAAPPPPPRRATPEKKPKENPWATAEYDYDAAEDNTLTFVENDKIINIEFVDDDWWLGELEKDGSKGLFPSNYVSLGN [chain 1 E550T], the screen value is -3.03.
For the variant chain 1 MALEPIDYTTHSREIDAEYLKIVRGSDPDTTWLIISPNAKKEYEPESTGSSFHDFLQLFDETKVQYGLARVSPPGSDVEKIIIIGWCPDSAPLKTRASFAANFAAVANNLFKGYHVQVTARDEDDLDENELLMKISNAAGARYSIQTSSKQQGKASTPPVKKSFTPSKSPAPVSKKEPVKTPSPAPAAKISSRVNDNNDDDDWNEPELKERDFDQAPLKPNQSSYKPIGKIDLQKVIAEEKAKEDPRLVQKPTAAGSKIDPSSDIANLKNESKLKRDSEFNSFLGTTKPPSMTESSLKNDDDKVIKGFRNEKSPAQLWAERKAKQNSGNAETKAEAPKPEVPEDEPEGEPDVKDLKSKFEGLAASEKEEEEMENKFAPPPKKSEPTIISPKPFSKPQEPVKAEEAEQPKTDYKKIGNPLPGMHIEADNEEEPEENDDDWDDDEDEAAQPPLPSRNVASGAPVQKEEPEQEEIAPSLPSRNSIPAPKQEEAPEQAPEEEIEEEAEEAAPQLPSRSSAAPPPPPRRATPEKKPKENPWATAEYDYDAAEDNPLTFVENDKIINIEFVDDDWWLGELEKDGSKGLFPSNYVSLGN [chain 1 E550P], the screen value was under -3.06.
